{"source": "patent US7943319B2", "about": "“Utility of RET mutant in diagnosis and treatment of melanoma” (John Wayne Cancer Institute, priority 2007, dated 2011)", "key": {"[1]": {"biological_target": "RET G691S mutant (RETmt), endogenous on melanoma cells (human) (UniProt P07949)", "sequence (P07949 29-1114 G691S)": "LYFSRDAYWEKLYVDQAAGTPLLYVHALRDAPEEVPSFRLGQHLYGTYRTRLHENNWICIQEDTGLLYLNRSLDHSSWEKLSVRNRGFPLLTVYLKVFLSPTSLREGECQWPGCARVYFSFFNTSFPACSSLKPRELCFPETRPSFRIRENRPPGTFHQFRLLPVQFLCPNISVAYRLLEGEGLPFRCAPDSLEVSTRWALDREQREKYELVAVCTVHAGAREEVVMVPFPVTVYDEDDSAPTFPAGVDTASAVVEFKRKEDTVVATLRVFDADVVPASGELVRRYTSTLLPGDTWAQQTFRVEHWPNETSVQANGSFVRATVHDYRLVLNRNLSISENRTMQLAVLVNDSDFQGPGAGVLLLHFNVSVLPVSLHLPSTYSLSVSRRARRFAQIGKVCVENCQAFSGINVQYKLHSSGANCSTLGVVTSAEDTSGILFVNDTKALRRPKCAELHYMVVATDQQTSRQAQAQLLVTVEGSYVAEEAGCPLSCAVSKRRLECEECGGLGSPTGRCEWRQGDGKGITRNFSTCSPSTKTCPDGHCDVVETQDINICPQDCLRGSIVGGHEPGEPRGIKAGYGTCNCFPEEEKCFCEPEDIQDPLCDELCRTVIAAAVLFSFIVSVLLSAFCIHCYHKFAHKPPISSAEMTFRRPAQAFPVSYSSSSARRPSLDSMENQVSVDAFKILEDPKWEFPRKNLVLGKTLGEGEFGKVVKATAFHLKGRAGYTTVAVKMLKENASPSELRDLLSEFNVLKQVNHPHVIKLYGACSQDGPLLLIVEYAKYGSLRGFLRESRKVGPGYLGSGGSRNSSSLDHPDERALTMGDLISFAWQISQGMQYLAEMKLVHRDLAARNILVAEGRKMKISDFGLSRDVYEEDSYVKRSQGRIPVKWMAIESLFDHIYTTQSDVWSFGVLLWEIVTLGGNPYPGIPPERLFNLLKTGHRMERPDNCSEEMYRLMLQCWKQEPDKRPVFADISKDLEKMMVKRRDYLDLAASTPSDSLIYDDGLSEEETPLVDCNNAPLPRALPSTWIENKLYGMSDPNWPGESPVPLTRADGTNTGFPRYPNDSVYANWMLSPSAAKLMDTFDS", "experiment": "cell-based or functional assay"}, "ME7 cells (RETmt/BRAFwt)": {"test_system": "ME7 cells (RETmt/BRAFwt)", "experiment": "Blocking assay of GDNF-induced proliferation", "format": "cell-based, human", "conditions": "pre-treated 60 min with 10 μM PD98059 or 100 nM wortmannin, then 25 ng/ml GDNF for 72 hrs", "method": "(§1) Cell proliferation 48 and 72 hrs after GDNF treatment (5, 25 or 50 ng/ml, dissolved in water) in serum-free medium was analyzed by 3-(4,5-dimethylthiazol-2-yl)-2,5-diphenyltetrazolium bromide (MTT) and direct cell counting with a light microscope, respectively. MTT (0.4 mg/ml, Sigma-Aldrich, St. Louis, Mo.) was added into culture wells after washing with PBS. The converted dye was dissolved with DMSO 2 hrs after incubation at 37° C. and the absorbance was measured at a wavelength of 550 nm with a microplate reader (Bio-Rad). For cell counting, cells were harvested after washing with PBS and the number of cells was counted using a hemocytometer under a microscope. In blocking assays, cells were pre-treated with 10 μM of a MEK1 inhibitor, PD98059 (Cell Signaling Technology), or 100 nM of a PI3K inhibitor, wortmannin (Cell Signaling Technology), for 60 min before treatment of GDNF as indicated in the instructions from the company, and followed by 25 ng/ml of GDNF treatment for 72 hrs. To avoid the effect of the delivery agent on cells, PD98059 and wortmannin were dissolved in PBS, and the same amount of PBS was added to control (GDNF(−)) and GDNF-treated cells."}, "RET": {"biological_target": "RET (Homo sapiens, UniProt P07949)", "sequence (P07949 29-1114)": "as the sequence (P07949 29-1114 G691S) above, with S663G counted along it", "conditions": "cited from earlier work"}, "RETmt thyroid cancers": {"test_system": "RETmt thyroid cancers", "conditions": "cited from earlier work"}, "[2]": {"test_system": "melanoma cells (RETmt and RETwt)", "experiment": "Cell proliferation by GDNF (MTT assay)", "format": "cell-based, human", "conditions": "48-hr exposure to GDNF, serum-free medium", "method": "as §1"}, "[3]": {"test_system": "melanoma cells (RETmt and RETwt)", "experiment": "Migration assay (Transwell chamber) with GDNF", "format": "cell-based, human", "conditions": "RETmt cells compared with RETwt cells; 5 or 25 ng/ml GDNF, 48 hrs", "method": "Migration ability of the melanoma cells was determined with a modified technique using a Transwell® chamber with a microporous membrane (membrane diameter 6.5 mm, pore size 8 μm, CORNING, Corning, N.Y.) (29). Melanoma cells were seeded in the upper chamber with RPMI 1640 culture medium (Invitrogen) with 2% fetal bovine serum (FBS). The lower chamber contained RPMI 1640 culture medium with 2% FBS and 5 or 25 ng/ml of GDNF. The cells that migrated through the membrane and adhered to the bottom of lower chamber were fixed with 80% ethanol and stained with hematoxylin 48 hrs after incubation at 37° C. The number of stained cells was counted in a total of 5 fields under a microscope with 200× magnification. In blocking assays, cells were pre-treated with wortmannin (100 nM) for 60 min before treatment of GDNF as indicated in the instructions from the company and followed by treatment with 25 ng/ml GDNF for 48 hrs. To avoid the effect of the delivery agent on cells, wortmannin was dissolved in PBS, and the same amount of PBS was added to control (GDNF(−)) and GDNF-treated cells."}, "[4]": {"test_system": "melanoma cells (RETmt and RETwt)", "experiment": "QCM Collagen-based Invasion Assay with GDNF", "format": "cell-based, human", "conditions": "RETmt cells compared with RETwt cells; 25 ng/ml GDNF, 60 hrs", "method": "Invasion ability of the melanoma cells was analyzed using QCM™ Collagen-based Invasion Assay MILLIPORE, Billerica, Mass.), as described in previous reports (27, 29). Cells were seeded in the upper chamber with RPMI 1640 culture medium (Invitrogen) with 2% FBS containing GDNF. The lower chamber contained RPMI 1640 culture medium with 5% FBS and GDNF with same concentration as the upper chamber (25 ng/ml). Cells invading the collagen-coated membrane were fixed and stained 60 hrs after incubation at 37° C. using reagents provided by MILLIPORE, according to the manufacturer's instructions. Stained cells were dissolved with a provided reagent and measured at a 550 nm wavelength with a microplate reader (Bio-Rad). In the blocking assay, cells were pre-treated with 1 μg/ml of a goat anti-human polyclonal RET-specific Ab, which binds to the extracellular domain of RET (R&D Systems), or 1 μg/ml control goat IgG (Santa Cruz Biotechnology) as a control 60 min before treatment with GDNF and followed by treatment with 25 ng/ml GDNF for 60 hrs."}, "ERK1/2": {"test_system": "ERK1/2", "experiment": "Western blotting of phosphorylated ERK1/2 after GDNF", "format": "cell-based, human", "conditions": "25 ng/ml GDNF", "method": "(§2) Cells were washed twice with ice-cold phosphate-buffered saline (PBS) and dissolved in solubilizing buffer (pH 7.5, 20 mM Tris-HCL, 12.5 mM β-glycerophosphate, 2 mM EGTA, 10 mM NaF, 1 mM benzamide, 1% NP-40, 1 mM Na3VO4, 1× protease inhibitor mix) after treatment with 25 μg human recombinant GDNF (Chemicon International, Temecula, Calif.). Each aliquot of protein (10 μg) was subjected to Western blotting analysis. After electrophoresis on 12.5% polyacrylamide gels, the protein was transblotted to Hybond™-P (Amersham Life Sciences, Inc., Arlington Heights, Ill.) in transfer buffer (192 mM glycine, 25 mM Tris, 2.5 mM SDS, and 10% methanol). The blots were blocked with 5% non-fat dry milk, and then incubated with anti-ERK 1/2 rabbit polyclonal Ab, or anti-phosphorylated ERK 1/2 rabbit polyclonal Ab (1:1000, Phosphoplus® p44/42 MAP Kinase (Thr202/Tyr204) Antibody kit, Cell Signaling Technology, Danvers, Mass.), and then incubated with an horse radish peroxidase (HRP)-conjugated anti-rabbit IgG Ab (1:2000, Cell Signaling Technology). As for Western blotting of Akt, anti-Akt rabbit polyclonal Ab, or anti-phosphorylated Akt rabbit polyclonal Ab (1:500, Phosphoplus® Akt (Ser473) Antibody Kit, Cell Signaling Technology) and a secondary Ab, HRP-conjugated anti-rabbit IgG Ab (1:1000), were used. Subsequently, the blots were developed with ECL Plus Western blotting Detection system (GE Healthcare Life Sciences, Piscataway, N.J.) according to the manufacturer instructions."}, "Akt": {"test_system": "Akt", "experiment": "Western blotting of phosphorylated Akt after GDNF", "format": "cell-based, human", "conditions": "25 ng/ml GDNF", "method": "as §2"}, "[5]": {"test_system": "melanoma cells (ME1, ME7, ME3)", "experiment": "Actin polymers staining by Alexa Fluor 568 phalloidin", "format": "cell-based, human", "conditions": "10 ng/ml GDNF, 48 hrs", "method": "Melanoma cells were seeded in BD BioCoat™ CultureSlides (BD Biosciences, San Jose, Calif.). Cells were washed twice with PBS and fixed with 3.7% formaldehyde solution in PBS for 10 min at room temperature after a 48 hr incubation with GDNF (10 ng/ml) at 37° C. Fixed cells were stained with 1 U/200 μl of PBS Alexa Fluor® 568 phalloidin (Invitrogen) for 20 min at room temperature. After washing twice with PBS, actin polymers were observed using fluorescence microscopy with 400× magnification."}}, "note": "Entries after “also recorded” stand apart in the source; their conditions may differ.", "data": [{"molecule": "human recombinant GDNF (glial cell line-derived neurotrophic factor) (from UniProt P39905 78-211) (ligand)", "values": [{"measurement": "suppression by RET siRNA of GDNF-induced cell proliferation in ME1 (MTT assay)", "setting": "[1]", "value": "> 80", "unit": "%"}]}, {"molecule": "COc1cccc(-c2cc(=O)c3ccccc3o2)c1N", "note": "[PD98059]", "values": [{"measurement": "suppression of GDNF-induced proliferation", "setting": "ME7 cells (RETmt/BRAFwt)", "value": "significantly blocked; also recorded: completely suppressed"}]}, {"molecule": "CNC(=O)c1cc(Oc2ccc(NC(=O)Nc3ccc(Cl)c(C(F)(F)F)c3)cc2)ccn1", "note": "[Sorafenib]", "values": [{"measurement": "RET signaling", "setting": "RET", "value": "can block"}, {"measurement": "kinase activity of RET", "setting": "RET", "value": "directly suppresses"}, {"measurement": "lysosomal degradation of RET protein", "setting": "RET", "value": "promotes"}, {"measurement": "growth of RETmt thyroid cancers", "setting": "RETmt thyroid cancers", "value": "suppress growth"}]}, {"molecule": "GDNF: human recombinant GDNF (Chemicon International), major ligand of RET (protein) SPDKQMAVLPRRERNRQAAAANPENSRGKGRRGQRGKNRGCVLTAIHLNVTDLGLGYETKEELIFRYCSGSCDAAETTYDKILKNLSRNRRLVSDKVGQACCRPIAFDDDLSFLDDNLVYHILRKHSAKRCGCI", "values": [{"measurement": "cell proliferation on GDNF exposure", "setting": "[2]; RETmt melanoma cells", "value": "enhanced proliferation"}, {"measurement": "cell proliferation on GDNF exposure", "setting": "[2]; RETwt melanoma cells", "value": "but not RETwt melanoma cells"}, {"measurement": "migration after GDNF stimulation", "setting": "[3]", "value": "more vigorous"}, {"measurement": "invasion after GDNF stimulation", "setting": "[4]", "value": "more vigorous"}, {"measurement": "phosphorylation of ERK1/2", "setting": "ERK1/2; ME1 (RETmt/BRAFmt), ME7 (RETmt/BRAFwt)", "value": "more intense phosphorylation; also recorded: strongly phosphorylated"}, {"measurement": "duration of phosphorylation of ERK1/2", "setting": "ERK1/2; ME1, ME7", "value": 60, "unit": "min"}, {"measurement": "time to strong phosphorylation of ERK1/2 after treatment", "setting": "ERK1/2; ME1, ME7", "value": "≤ 15", "unit": "min"}, {"measurement": "phosphorylation of ERK1/2", "setting": "ERK1/2; ME3 (RETwt/BRAFwt)", "value": "weak phosphorylation"}, {"measurement": "phosphorylation of Akt", "setting": "Akt; ME1 (RETmt/BRAFmt), ME5 (RETmt/BRAFwt)", "value": "strongly phosphorylated"}, {"measurement": "duration of phosphorylation of Akt", "setting": "Akt; ME1, ME5", "value": 60, "unit": "min"}, {"measurement": "time to strong phosphorylation of Akt after treatment", "setting": "Akt; ME1, ME5", "value": "≤ 15", "unit": "min"}, {"measurement": "phosphorylation of Akt", "setting": "Akt; ME3 (RETwt/BRAFwt)", "value": "weak phosphorylation"}, {"measurement": "actin polymerization (filopodia)", "setting": "[5]; RETmt cell lines ME1, ME7", "value": "induced intensely; also recorded: induced filopodia"}, {"measurement": "actin polymerization (filopodia)", "setting": "[5]; RETwt cell line ME3", "value": "no actin polymerization induced"}]}]}
